Reference: the DeepSol protein solubility set

assay: soluble on expression in E. coli; label from the status in PepcDB or PDB records

Sequence | soluble on expression in E. coli
GGGGGGMLNRVFLEGEIESSCWSVKKTGFLVTIKQMRFFGERLFTDYYVIYANGQLAYELEKHTKKYKTISIEGILRTYLERKSEIWKTTIEIVKIFNPKNEIVIDYKEI | soluble
MAGISLLLDQAFHRHFADFFTLRSVDNRVLLNLASPRHQLAKQSLVLLAKCCFLFHLSVSISNFPTVYPTRSTIDRFKRIFPHSPRVNADLSSSSWQTSRRNYCDHALEEYVDKIFVDEAVNELQTIQDILRWSVSRFSAANIWYGHGTDNPWDEAVQLVLPSLYLPLDIPEDMRTARLTSSEKHRIVERVIRRVNERIPVAYLTNKAWFCGHEFYVDERVLVPRSPIGELINNKFAGLISKQPQHILDMCTGSGCIAIACAYAFPEAEVDAVDISPDALAVAEQNIEEHGLIHNVIPIRSDLFRDLPKVQYDLIVTNPPYVDAEDMSDLPNEYRHEPELGLASGTDGLKLTRRILGNAADYLADDGVLICEVGNSMVHLMEQYPDVPFTWLEFDNGGDGVFMLTKEQLIAAREHFAIYKD | not soluble
MSLSCPRCGWVHYINPLPVAIALTVNRNNELLMIRRAHEPAFNEWALPGGFLEAGERPEEGCLRELFEETSLEGTIDKLIGVWHLESGLYGSLIAVAYRVIAAHERISINHEVFEAGFYRPDNMPPVRIPLHRQIIAESRWPERDLSLTEGHHHHHH | not soluble
GSLYNDGNRDQRNFGRNQRNNNSNRYRNSRFNSRPRTRSREDDDEVHFDKTTFSKLIHVPKEDNSKEVTLDSLLEEGVLDKEIHKAITRMEFPGLTPVQQKTIKPILSSEDHDVIARAKTGTGKTFAFLIPIFQHLINTKFDSQYMVKAVIVAPTRDLALQIEAEVKKIHDMNYGLKKYACVSLVGGTDFRAAMNKMNKLRPNIVIATPGRLIDVLEKYSNKFFRFVDYKVLDEADRLLEIGFRDDLETISGILNEKNSKSADNIKTLLFSATLDDKVQKLANNIMNKKECLFLDTVDKNEPEAHERIDQSVVISEKFANSIFAAVEHIKKQIKERDSNYKAIIFAPTVKFTSFLCSILKNEFKKDLPILEFHGKITQNKRTSLVKRFKKDESGILVCTDVGARGMDFPNVHEVLQIGVPSELANYIHRIGRTARSGKEGSSVLFICKDELPFVRELEDAKNIVIAKQEKYEPSEEIKSEVLEAVTEEPEDISDIVISLISSYRSCIKEYRFSERRILPEIASTYGVLLNDPQLKIPVSRRFLDKLGLSRSPIGKAMFEIRDY | soluble
MKINRKGGLFLLMFLFLLTGCWDRRELEHVLFINTLGIDFKDNHYIIYPQFINFTNMAKQEGPANRNYSPAYIGKGEGKLLYDAAFDFYKSSQQKVSWEHIKSIVVTERFLKNGNLNQLNDFLSRFFQFRNTMWVFGTKEPLENILATNNIFNISSLYTIMNLPQETIRQSASVDPLRLYTFRSNYYEPGMTTRIPFLATTTEHWKQGHKAFWMLEFNEYGCIAAKSYVNHLNDSDIAGVRWTNKNTNRAPLLLKVKNRAIGELILKKPKIDTKVSIEKGKPHIVMNISLEGDIYQLMKPMPVHKVKKTLRISLKKK | not soluble
MPGELDTFKEAVKIIIEKEFPELLSPARHMMRAIVIDARQSDCDLQVLAADGSPHPSFPPLANVLVPVRKSVQIGQKVRIGFYYGDPAMPYIDEVLSNGEA | not soluble
MEVDTSSSSSSEDECDPSSPSTAYIHSASVRLSVGTEEAARTVADVIKIDKEPRRSGARREVCSEGEFVVIKIESKDPKSLSKSIANAVDMIDLSVKTIKLCENLGKSKENGLKRKLSNGSQA | not soluble
MGSDKIHHHHHHMRIIETIEEMKKFSEEMREKKKTIGFVPTMGYLHEGHLSLVRRARAENDVVVVSIFVNPTQFGPNEDYERYPRDFERDRKLLEKENVDCIFHPSVEEMYPPDFSTYVEETKLSKHLCGRSRPGHFRGVCTVVTKLFNIVKPHRAYFGQKDAQQFRVLRRMVRDLNMDVEMIECPIVREPDGLAMSSRNVYLSPEERQQALSLYQSLKIAENLYLNGERDAEKIKEEMIKHLSRFDKVKIDYVEIVDEETLEPVEKIDRKVIVAVAAWVGNARLIDNTILG | not soluble
GDLVGPGCAEYAAANPTGPASVQGMSQDPVAVAASNNPELTTLTAALSGQLNPQVNLVDTLNSGQYTVFAPTNAAFSKLPASTIDELKTNSSLLTSILTYHVVAGQTSPANVVGTRQTLQGASVTVTGQGNSLKVGNADVVCGGVSTANATVYMIDSVLMPPA | soluble
MDEMIFDPTMSKKKKKKKKPFMLDEEGDAQTEETQPSETKEVEPEPTEEKDVDADEEDSRKKDASDDLDDLNFFNQKKKKKKTKKIFDIDEAEEAIKDVKIESDAQEPAEPEDDLDIMLGNKKKKKKNVKFPEEDEILEKDEALEDEDSKKDDGISFSSQTAWAGSERDYTYEELLNRVFNIMREKNPDMVAGEKRKFVMKPPQVVRVGTKKTSFVNFTDICKLLHRQPKHLLAFLLAELGTSGSIDGNNQLVIKGRFQQKQIENVLRRYIKEYVTCHTCRSPDTILQKDTRLYFLQCETCHSRCSVASIKTGFQAVTGKRAQLRAKAN | soluble
MKYSYVARQPILDREKRTIGYELLFRDGPKNTFPEVEPELATSRLLSDHFLSTHYNTLGNKLGFVNFPHQSLVNLVPTLFPKDSLVIEVLEDCEPTQELLDAIKHLHECGYRIALDDFVPTKAWKRFLPYVSMIKFDIRLVPIEKAAIFIQALSQFNIDFLAEKVETYEEFEQALDAGFNYFQGYFFSKPEMIQKKRLNPAFLTVIQLCKEIADKPIDFNEVERLFSIDVTLSYKLLTYVNSGYTLTTKIKSFRQALIYLGEERLRRFISLVAIASVQEDKPDSLYSLAIQRARMCEILLSQMKTKYDPGQAFLTGMFSLLGSLLDQPLSDVIEDIPVDEDIKLALTSRKGVLGYLLSMCIAYEQADWELAERYCSVLKLTETQLADAFNESTEWAQELLSQTP | not soluble
STSGANSSGSYLPSEIRSSKIDDNYLKELNEDLKLRKQELLEMLKPLEDKNNLLFQRLMSNLEEKQRSLQIMRQIMAGKGCEESSVMELLKEAEEMKQNLERKNKMLRKEMEMLWNKTFEAEELSDQQKAPQTKNKADLQDGKEKQQRKMEWVKYQEQNNILQNDFHGKVIELRIEALKNYQKANDLKLSLYLQQNFEPMQAFLNLPGSQGIRIV | soluble
MGSDKIHHHHHHMGRLFYKPENAWVGDLIPYYENGTYYGFYLHDPRIRDKEYAEDTTWHLIETKDFVNLDYKGESIARGGIHDANKNAYTGSVIKCEKDGLYHVFYTAYNEDFKLRGKTIQSVMQATGKNLENLETVKDFLFVSDGKQYEEFDWRDPFVFWNDEDQCYYMLLASRVTNRGDLRGGCIALCKSEDLINWTYEKPFYDPKMYITMECPELFKMGEYWYLVFSTFSDQFTTHYRISKNWNGPWEIPDDDVFDTRADYAIKTASDGKRRFAFGWIASKYGNTDFGPWEWGGTMNFHEIIQNSKNGELRIKAIPEVLDYFSKEIELKKETLYNCKMVQAQDGVSVESDTLGALLYPLEGDTFALDMVIKPERYHEFGIALHVDKELETGYFLRMNPKNQLVAWDMWPRGEQGRYQWQIKGDVPYQIETARKLPKAEEYRVHIIKEKDICVVYINDEIVLSTRMYNHKDGYAGIYVVQGDVKLIQYKEKRSE | not soluble
MVFTPLDVRTIVSLPSCPKCNSEYTYEDGSLLICPECAHEWSADAGSADASDDVKVIKDSTGNVLQDGDTITVIKDLKVKGSSLVVKVGTKVKNIRLVDGDHDIDCKIDGIGAMKLKSEFVRKV | not soluble
GSHMHAKVGDYLVVKGTTTERHDQHAEIIEVRSADGSPPYVVRWLVNGHETTVYPGSDAVVVTATEHAEAEKRAAARAGHAAT | soluble
FLVPPTVEQKTRPFTLPNLPLSSLSNSRAPLPISSMGISPDNVQSVQFQNGRCTLDGRLVGTTPVSLSHVAKIRGTSNGTVINLTELDGTPFHPFEGPAPIGFPDLGGCDWHINMTQFGHSSQTQYDVDTTPDTFVPHLGSIQANGIGSGNYVGVLSWISPPSHPSGSQVDLWKIPNYGSSITEATHLAPSVYPPGFGEVLVFFMSKMPGPGAYNLPCLLPQEYISHLASEQAPTVGEAALLHYVDPDTGRNLGEFKAYPDGFLTCVPNGASSGPQQLPINGVFVFVSWVSRFYQLKPVGTASSARGRLGLRR | soluble
MHTFFVTSTGFGVGLTSTSLGLVRALEYGGLKAGFYKPVAQQHPGNSKLEYSTELISRTLGLAPPAPLPLATVEHLLGEGQIDDLMEDIVRRFKQASEGYDVMVVEGMVPTRHVSYASRVNTRLASSLDADIILVSSAEDDALQAITDRIEIQAQFFGGAQNPRLLGVILNKIRTDHSDDLFEQLKNHSTLFHQSSFQILGCIPWEDSLNAPRMADVVTQLQAQ | not soluble
MLKIISANVNGIRSAYKKGFYEYIAASGADIVCVQELKAQEADLSADMKNPHGMHGHWHCAEKRGYSGVAVYSKRKPDNVQIGMGIEEFDREGRFVRCDFGRLSVISLYLPSGSSAEERQQVKYRFLDAFYPMLEAMKNEGRDIVVCGDWNIAHQNIDLKNWKGNQKNSGFLPEEREWIGKVIHKLGWTDMWRTLYPDVPGYTWWSNRGQAYAKDVGWRIDYQMVTPELAAKAVSAHVYKDEKFSDHAPLVVEYDYAAE | soluble
MAHHHHHHMHYTGVGIEDVKVRFNEKMRLSASLQRRKSEEVEWSLFWEALNKGDGKMISEALSGASVSGATQQIGMAEACAVLLKGAGKEWHTRIVDDLPFSTVTRCSLLHAALAEKRPDVAAEMLSHARVTRSDLSSLWPLMAKCTWEEVLRMISACPKNAVPYNQALPFILKQGCSLQTLSEHLEHARVLGDADVVAPLLAYAVEMEDWPYVERCVGHLVDIGKITPSAREAFGHLCKLHGPKRVCHRLMEHHVELSSMTIEDLESLRF | not soluble
KNRIGTKALNFTYTLASGAQGSLYQLKAEYLLLFINNPGCQACTETIEGLKNAPIINQLLQEKKLVLLSIYPDEELDEWKKHLSEFPNEWINGYDKKFTIKEEQVYDLKAIPTLYLLDKDKTVLLKDATAPAIEAYLMQHQ | not soluble
MAHHHHHHMNKHICIYGGSFDPITHAHEMVLAEVSSLDWVDEIWVVLCRCRNDKHLTEFQHRHNMFSLIMNNNSPKMLKNKIFLKDIECKETTTPTYDLLKMQKEKYPNYTFYFTIGSDLLNDIFFWDNGEKLVAENNFIIVERGNFKIDENVLKKFPSYYLIKIENMSFINYISSSDARKMLSQKNNSEDLQKYIHPVIINYIKEHDLYDNNSA | soluble
MDRLDRKILYLLQENATLSVADIAKKVGLSTTPCWRRIQKLEEDGVIQRRVAVLSPEKVNAHVTVFVSIRTNTHSQEWLKRFSKIVQEFREVIEFYRMSGDIDYLLRVVVPNIEAYDLFYKKLIAKIDIRDVSSSFAMEQIKYTTELPLNYIKLHDKTSEQNS | not soluble
MAHHHHHHMRDPQKNCDDVVALRETLKERAGEMAKKMKENERELFLNPMPLGISCDGLPLDTDPEFHALEVARLRERQEESCDEAKIHKLNDALNERAEDLARAKLAADRQYLNPEHLRVAVDELPLNEDRNFILKEALRQEKLQNSRESAAAIAALENELNNMAKAMAAEMLAKQRPSYLAPEHHGRRIEDLPLNDSDDFLKKERRRRDLLKQPSWDIDVVAEIDKELSEMADAMARAMNAAERPQYMKASYYDKTLSELSLDTDSIIARLEAQRARLKRNPVRNAEAIHATEAAIISRAEALAKASINVGRGGVFSASQAECRSISLTSMEANSFNLLRRRGWSS | soluble
